Where no end group is shown, it is not given here. [ ]: non-standard residue; d: D form. Aib = CC(C)(N)C(=O)O
B1: [Aib8,Glu23,Lys24,Val25,Glu34,Lys35,Aib36,Lys37]-GLP-1-(7-37)-peptidyl-Glu-Phe-Leu amide (peptide)
peptide: H[Aib]EGTFTSDVSSYLEGEKVKEFIAWLVEK[Aib]KEFL-NH2
modifications: N-terminus assumed
SMILES: CC[C@H](C)[C@H](NC(=O)[C@H](Cc1ccccc1)NC(=O)[C@H](CCC(=O)O)NC(=O)[C@H](CCCCN)NC(=O)[C@@H](NC(=O)[C@H](CCCCN)NC(=O)[C@H](CCC(=O)O)NC(=O)CNC(=O)[C@H](CCC(=O)O)NC(=O)[C@H](CC(C)C)NC(=O)[C@H](Cc1ccc(O)cc1)NC(=O)[C@H](CO)NC(=O)[C@H](CO)NC(=O)[C@@H](NC(=O)[C@H](CC(=O)O)NC(=O)[C@H](CO)NC(=O)[C@@H](NC(=O)[C@H](Cc1ccccc1)NC(=O)[C@@H](NC(=O)CNC(=O)[C@H](CCC(=O)O)NC(=O)C(C)(C)NC(=O)[C@@H](N)Cc1c[nH]cn1)[C@@H](C)O)[C@@H](C)O)C(C)C)C(C)C)C(=O)N[C@@H](C)C(=O)N[C@@H](Cc1c[nH]c2ccccc12)C(=O)N[C@@H](CC(C)C)C(=O)N[C@H](C(=O)N[C@@H](CCC(=O)O)C(=O)N[C@@H](CCCCN)C(=O)NC(C)(C)C(=O)N[C@@H](CCCCN)C(=O)N[C@@H](CCC(=O)O)C(=O)N[C@@H](Cc1ccccc1)C(=O)N[C@@H](CC(C)C)C(N)=O)C(C)C
B2: [Aib8,Glu23,Val25,Glu34,Lys35,Aib36,Lys37]-GLP-1-(7-37)-peptidyl-Glu-Phe amide (peptide)
peptide: H[Aib]EGTFTSDVSSYLEGEAVKEFIAWLVEK[Aib]KEF-NH2
modifications: N-terminus assumed
SMILES: CC[C@H](C)[C@H](NC(=O)[C@H](Cc1ccccc1)NC(=O)[C@H](CCC(=O)O)NC(=O)[C@H](CCCCN)NC(=O)[C@@H](NC(=O)[C@H](C)NC(=O)[C@H](CCC(=O)O)NC(=O)CNC(=O)[C@H](CCC(=O)O)NC(=O)[C@H](CC(C)C)NC(=O)[C@H](Cc1ccc(O)cc1)NC(=O)[C@H](CO)NC(=O)[C@H](CO)NC(=O)[C@@H](NC(=O)[C@H](CC(=O)O)NC(=O)[C@H](CO)NC(=O)[C@@H](NC(=O)[C@H](Cc1ccccc1)NC(=O)[C@@H](NC(=O)CNC(=O)[C@H](CCC(=O)O)NC(=O)C(C)(C)NC(=O)[C@@H](N)Cc1c[nH]cn1)[C@@H](C)O)[C@@H](C)O)C(C)C)C(C)C)C(=O)N[C@@H](C)C(=O)N[C@@H](Cc1c[nH]c2ccccc12)C(=O)N[C@@H](CC(C)C)C(=O)N[C@H](C(=O)N[C@@H](CCC(=O)O)C(=O)N[C@@H](CCCCN)C(=O)NC(C)(C)C(=O)N[C@@H](CCCCN)C(=O)N[C@@H](CCC(=O)O)C(=O)N[C@@H](Cc1ccccc1)C(N)=O)C(C)C
B3: [Aib8,Glu23,Val25,Glu34,Lys35,Aib36,Lys37]-GLP-1-(7-37)-peptidyl-Glu amide (peptide)
peptide: H[Aib]EGTFTSDVSSYLEGEAVKEFIAWLVEK[Aib]KE-NH2
modifications: N-terminus assumed
SMILES: CC[C@H](C)[C@H](NC(=O)[C@H](Cc1ccccc1)NC(=O)[C@H](CCC(=O)O)NC(=O)[C@H](CCCCN)NC(=O)[C@@H](NC(=O)[C@H](C)NC(=O)[C@H](CCC(=O)O)NC(=O)CNC(=O)[C@H](CCC(=O)O)NC(=O)[C@H](CC(C)C)NC(=O)[C@H](Cc1ccc(O)cc1)NC(=O)[C@H](CO)NC(=O)[C@H](CO)NC(=O)[C@@H](NC(=O)[C@H](CC(=O)O)NC(=O)[C@H](CO)NC(=O)[C@@H](NC(=O)[C@H](Cc1ccccc1)NC(=O)[C@@H](NC(=O)CNC(=O)[C@H](CCC(=O)O)NC(=O)C(C)(C)NC(=O)[C@@H](N)Cc1c[nH]cn1)[C@@H](C)O)[C@@H](C)O)C(C)C)C(C)C)C(=O)N[C@@H](C)C(=O)N[C@@H](Cc1c[nH]c2ccccc12)C(=O)N[C@@H](CC(C)C)C(=O)N[C@H](C(=O)N[C@@H](CCC(=O)O)C(=O)N[C@@H](CCCCN)C(=O)NC(C)(C)C(=O)N[C@@H](CCCCN)C(=O)N[C@@H](CCC(=O)O)C(N)=O)C(C)C
B4: [Aib8,Glu23,Lys24,Val25,Glu34,Aib36,Lys37]-GLP-1-(7-37)-peptidyl-Glu-Phe-Leu amide (peptide)
peptide: H[Aib]EGTFTSDVSSYLEGEKVKEFIAWLVEG[Aib]KEFL-NH2
modifications: N-terminus assumed
SMILES: CC[C@H](C)[C@H](NC(=O)[C@H](Cc1ccccc1)NC(=O)[C@H](CCC(=O)O)NC(=O)[C@H](CCCCN)NC(=O)[C@@H](NC(=O)[C@H](CCCCN)NC(=O)[C@H](CCC(=O)O)NC(=O)CNC(=O)[C@H](CCC(=O)O)NC(=O)[C@H](CC(C)C)NC(=O)[C@H](Cc1ccc(O)cc1)NC(=O)[C@H](CO)NC(=O)[C@H](CO)NC(=O)[C@@H](NC(=O)[C@H](CC(=O)O)NC(=O)[C@H](CO)NC(=O)[C@@H](NC(=O)[C@H](Cc1ccccc1)NC(=O)[C@@H](NC(=O)CNC(=O)[C@H](CCC(=O)O)NC(=O)C(C)(C)NC(=O)[C@@H](N)Cc1c[nH]cn1)[C@@H](C)O)[C@@H](C)O)C(C)C)C(C)C)C(=O)N[C@@H](C)C(=O)N[C@@H](Cc1c[nH]c2ccccc12)C(=O)N[C@@H](CC(C)C)C(=O)N[C@H](C(=O)N[C@@H](CCC(=O)O)C(=O)NCC(=O)NC(C)(C)C(=O)N[C@@H](CCCCN)C(=O)N[C@@H](CCC(=O)O)C(=O)N[C@@H](Cc1ccccc1)C(=O)N[C@@H](CC(C)C)C(N)=O)C(C)C
B5: [Aib8,Glu23,Val25,Val29,Gln30,Glu34,Lys35,Aib36,Lys37]-GLP-1-(7-37)-peptidyl-Glu-Phe-Leu amide (peptide)
peptide: H[Aib]EGTFTSDVSSYLEGEAVKEFVQWLVEK[Aib]KEFL-NH2
modifications: N-terminus assumed
SMILES: CC(C)C[C@H](NC(=O)[C@H](Cc1ccccc1)NC(=O)[C@H](CCC(=O)O)NC(=O)[C@H](CCCCN)NC(=O)C(C)(C)NC(=O)[C@H](CCCCN)NC(=O)[C@H](CCC(=O)O)NC(=O)[C@@H](NC(=O)[C@H](CC(C)C)NC(=O)[C@H](Cc1c[nH]c2ccccc12)NC(=O)[C@H](CCC(N)=O)NC(=O)[C@@H](NC(=O)[C@H](Cc1ccccc1)NC(=O)[C@H](CCC(=O)O)NC(=O)[C@H](CCCCN)NC(=O)[C@@H](NC(=O)[C@H](C)NC(=O)[C@H](CCC(=O)O)NC(=O)CNC(=O)[C@H](CCC(=O)O)NC(=O)[C@H](CC(C)C)NC(=O)[C@H](Cc1ccc(O)cc1)NC(=O)[C@H](CO)NC(=O)[C@H](CO)NC(=O)[C@@H](NC(=O)[C@H](CC(=O)O)NC(=O)[C@H](CO)NC(=O)[C@@H](NC(=O)[C@H](Cc1ccccc1)NC(=O)[C@@H](NC(=O)CNC(=O)[C@H](CCC(=O)O)NC(=O)C(C)(C)NC(=O)[C@@H](N)Cc1c[nH]cn1)[C@@H](C)O)[C@@H](C)O)C(C)C)C(C)C)C(C)C)C(C)C)C(N)=O
B6: [Glu23,Val25,Glu34,Lys35,Val36,Lys37]-GLP-1-(7-37)-peptidyl-Glu-Phe-Leu amide (peptide)
peptide: HAEGTFTSDVSSYLEGEAVKEFIAWLVEKVKEFL-NH2
B7: [Ala2,Lys17,Ala18,Arg20,Glu21,Leu27,Glu28,Lys29]-Glucagonyl-(1-29)-Val-Lys-Glu-Phe-Leu amide (peptide)
peptide: HAQGTFTSDYSKYLDSKAAREFVQWLLEKVKEFL-NH2
B8: [Ala2,Glu21,Lys29,Val30,Leu31,Glu32,Phe33,Leu34]-Exendin-4-(1-34)-peptide amide (peptide)
peptide: HAEGTFTSDLSKQMEEEAVREFIEWLKNKVLEFL-NH2
B9: [Aib8,Glu23,Lys24,Val25,Glu30,His31,Glu34,Lys35,Aib36,Lys37]-GLP-1-(7-37)-peptidyl-Glu-Phe-Leu amide (peptide)
peptide: H[Aib]EGTFTSDVSSYLEGEKVKEFIEHLVEK[Aib]KEFL-NH2
modifications: N-terminus assumed
SMILES: CC[C@H](C)[C@H](NC(=O)[C@H](Cc1ccccc1)NC(=O)[C@H](CCC(=O)O)NC(=O)[C@H](CCCCN)NC(=O)[C@@H](NC(=O)[C@H](CCCCN)NC(=O)[C@H](CCC(=O)O)NC(=O)CNC(=O)[C@H](CCC(=O)O)NC(=O)[C@H](CC(C)C)NC(=O)[C@H](Cc1ccc(O)cc1)NC(=O)[C@H](CO)NC(=O)[C@H](CO)NC(=O)[C@@H](NC(=O)[C@H](CC(=O)O)NC(=O)[C@H](CO)NC(=O)[C@@H](NC(=O)[C@H](Cc1ccccc1)NC(=O)[C@@H](NC(=O)CNC(=O)[C@H](CCC(=O)O)NC(=O)C(C)(C)NC(=O)[C@@H](N)Cc1c[nH]cn1)[C@@H](C)O)[C@@H](C)O)C(C)C)C(C)C)C(=O)N[C@@H](CCC(=O)O)C(=O)N[C@@H](Cc1c[nH]cn1)C(=O)N[C@@H](CC(C)C)C(=O)N[C@H](C(=O)N[C@@H](CCC(=O)O)C(=O)N[C@@H](CCCCN)C(=O)NC(C)(C)C(=O)N[C@@H](CCCCN)C(=O)N[C@@H](CCC(=O)O)C(=O)N[C@@H](Cc1ccccc1)C(=O)N[C@@H](CC(C)C)C(N)=O)C(C)C
B10: [Aib8,Val25,Gln27,Glu34,Lys35,Aib36,Ala37]-GLP-1-(7-37)-peptidyl-Glu-Phe-Leu amide (peptide)
peptide: H[Aib]EGTFTSDVSSYLEGQAVKQFIAWLVEK[Aib]AEFL-NH2
modifications: N-terminus assumed
SMILES: CC[C@H](C)[C@H](NC(=O)[C@H](Cc1ccccc1)NC(=O)[C@H](CCC(N)=O)NC(=O)[C@H](CCCCN)NC(=O)[C@@H](NC(=O)[C@H](C)NC(=O)[C@H](CCC(N)=O)NC(=O)CNC(=O)[C@H](CCC(=O)O)NC(=O)[C@H](CC(C)C)NC(=O)[C@H](Cc1ccc(O)cc1)NC(=O)[C@H](CO)NC(=O)[C@H](CO)NC(=O)[C@@H](NC(=O)[C@H](CC(=O)O)NC(=O)[C@H](CO)NC(=O)[C@@H](NC(=O)[C@H](Cc1ccccc1)NC(=O)[C@@H](NC(=O)CNC(=O)[C@H](CCC(=O)O)NC(=O)C(C)(C)NC(=O)[C@@H](N)Cc1c[nH]cn1)[C@@H](C)O)[C@@H](C)O)C(C)C)C(C)C)C(=O)N[C@@H](C)C(=O)N[C@@H](Cc1c[nH]c2ccccc12)C(=O)N[C@@H](CC(C)C)C(=O)N[C@H](C(=O)N[C@@H](CCC(=O)O)C(=O)N[C@@H](CCCCN)C(=O)NC(C)(C)C(=O)N[C@@H](C)C(=O)N[C@@H](CCC(=O)O)C(=O)N[C@@H](Cc1ccccc1)C(=O)N[C@@H](CC(C)C)C(N)=O)C(C)C

What follows are binders tested against human GLP-1 receptor (human, UniProt P43220) (assay: cell-based or functional assay).

Binder | CRE luciferase EC50, 0% HSA [nM] | CRE luciferase EC50, 1% HSA [nM]
B1 | 0.487 | 0.174
B2 | 0.022 | 0.015
B3 | 0.014 | 0.005
B4 | 0.461 | 0.111
B5 | 0.126 | 0.037
B6 | 0.44 | 0.171
B7 | 0.971 | 0.231
B8 | 0.031 | 0.02
B9 | 1.84 | 0.593
B10 | 0.191 | 0.069

Reference: patent US20150344540A1, “NOVEL GLP-1 RECEPTOR AGONISTS WITH CHOLESTEROL EFFLUX ACTIVITY” (NOVO NORDISK A/S, priority 2012, published 2015)
